From patent US20250084178A1 (ARCUS BIOSCIENCES, published 2025) come the findings set out here.

Like-named read-outs stand apart in the source and are kept apart here.

Assay [1] addresses T1, soluble His-tagged human CD39 ECD protein (human, UniProt P49961 38-478).
T1 construct: also called human CD39 ECD His-tagged antigen; Sino Biological Cat. No. 16020-H08B
T1 sequence: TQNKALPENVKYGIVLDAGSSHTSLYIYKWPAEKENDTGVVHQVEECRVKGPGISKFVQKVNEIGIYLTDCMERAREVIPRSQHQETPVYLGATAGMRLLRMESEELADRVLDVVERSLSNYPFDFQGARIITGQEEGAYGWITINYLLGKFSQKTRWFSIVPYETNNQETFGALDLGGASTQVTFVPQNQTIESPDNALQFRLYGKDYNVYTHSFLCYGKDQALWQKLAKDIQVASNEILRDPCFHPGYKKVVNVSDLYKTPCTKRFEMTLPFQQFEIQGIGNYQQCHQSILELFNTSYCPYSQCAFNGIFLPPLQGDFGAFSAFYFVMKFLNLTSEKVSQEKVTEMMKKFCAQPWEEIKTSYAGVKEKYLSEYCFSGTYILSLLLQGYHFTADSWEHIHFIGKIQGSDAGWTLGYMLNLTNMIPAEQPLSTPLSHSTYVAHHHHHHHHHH
The experiment in a line: SPR (Biacore 8K), antibody captured via anti-human Fc, CD39 ECD analyte.

The target in assay [2] is T2, human CD39 expressed on the cell surface (human, UniProt P49961 1-510).
T2 construct: full-length human CD39 transfected into CHO-K1, or endogenous human CD39 on primary cells and cell lines, or human CD39 of knock-in mice; also called Human CD39-CHO-K1; cellular human CD39
T2 sequence: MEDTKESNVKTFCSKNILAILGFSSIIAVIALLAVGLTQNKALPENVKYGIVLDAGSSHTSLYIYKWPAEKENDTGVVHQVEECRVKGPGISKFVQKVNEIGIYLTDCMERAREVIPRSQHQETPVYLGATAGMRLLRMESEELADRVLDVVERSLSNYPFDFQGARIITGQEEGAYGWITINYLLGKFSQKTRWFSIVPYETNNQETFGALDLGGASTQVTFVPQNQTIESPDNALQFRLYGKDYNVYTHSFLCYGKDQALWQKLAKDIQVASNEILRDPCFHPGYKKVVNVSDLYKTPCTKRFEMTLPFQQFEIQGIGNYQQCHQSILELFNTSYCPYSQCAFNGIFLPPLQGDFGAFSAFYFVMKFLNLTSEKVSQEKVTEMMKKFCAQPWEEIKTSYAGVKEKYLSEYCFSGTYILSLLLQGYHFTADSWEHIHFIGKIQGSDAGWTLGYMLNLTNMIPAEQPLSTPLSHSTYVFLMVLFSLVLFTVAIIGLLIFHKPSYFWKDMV
The experiment in a line: FACS on CHO-K1 cells overexpressing human CD39.

Assay [3] deals with T3, cynomolgus monkey CD39 expressed on HEK-293 cells (cynomolgus monkey, UniProt P49961 5-510 (human entry)).
T3 construct: also called Cynomolgus Monkey CD39-HEK293
T3 chain: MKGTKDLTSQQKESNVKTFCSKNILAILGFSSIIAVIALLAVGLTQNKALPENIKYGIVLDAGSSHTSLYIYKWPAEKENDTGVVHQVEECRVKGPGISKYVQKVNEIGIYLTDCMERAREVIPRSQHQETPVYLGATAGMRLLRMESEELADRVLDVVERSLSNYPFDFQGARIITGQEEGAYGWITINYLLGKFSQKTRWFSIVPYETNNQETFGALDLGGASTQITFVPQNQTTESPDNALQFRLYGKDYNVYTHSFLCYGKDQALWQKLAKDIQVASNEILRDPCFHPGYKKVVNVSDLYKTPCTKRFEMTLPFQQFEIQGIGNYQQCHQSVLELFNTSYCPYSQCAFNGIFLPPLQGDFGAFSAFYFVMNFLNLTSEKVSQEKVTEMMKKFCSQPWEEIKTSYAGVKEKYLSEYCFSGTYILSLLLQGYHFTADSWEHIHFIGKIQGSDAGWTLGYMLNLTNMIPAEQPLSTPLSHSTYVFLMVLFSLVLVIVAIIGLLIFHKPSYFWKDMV
Description: FACS on HEK293 cells overexpressing cynomolgus CD39.

For assay [4], the target named is T2, human CD39 expressed on the cell surface. The experiment in a line: cell-based or functional assay.
For assay [5] the target is unchanged. The experiment in a line: cell-based or functional assay. This is another data set of the same source.
Assay [6] deals with T1, soluble His-tagged human CD39 ECD …. Description: SPR (Biacore 8K), antibody captured via anti-human Fc, CD39 ECD analyte. The source holds these as a separate data set.
Assay [7] addresses T2, human CD39 expressed on the cell surface. Description: cell-based or functional assay. This is another data set of the same source.
For assay [8] the target is unchanged. The experiment in a line: cell-based or functional assay. The source holds these as a separate data set.
Assay [9] shares this target. Description: flow cytometry on purified human CD14+ monocytes, 400 uM ATP.
Assay [10] has the same target. The experiment in a line: cell-based or functional assay. This is another data set of the same source.
For assay [11] the target is unchanged. Description: flow cytometry on purified human CD14+ monocytes, 0 uM ATP.

B1: hu31.7_IGG4.P (antibody, human IgG4 S228P, kappa, V domains shown)
VH: EVQLVQSGAEVKKPGATVKISCKVSGDSITAYFMHWVQQAPGKGLEWMGRIDPDHERTKYAEKFKNRVTITADTSTNTVYMELSSLRSEDTAVYYCATERVPGFETDYWGQGVMVTVSS
VL: DIVMTQSPDLAVSLGERATINCRTQQTVDHYGTTYMNWYQQKPGQPPKLLIYLASSLASGVPDRFSGSGSGTDFTLTISSLQAEDVAVYYCQQSRNLWTFGGGTKVEIKR
notes: humanized variant of antibody 31 (VH2 + VL2), IgG4 (S228P)
In assay [1], B1 yielded a Kd of 0.496 nM, a koff of 0.000615 s⁻¹ and a kon of 1.24e+06 M⁻¹ s⁻¹. Further, the midpoint of the response in assay [2], the EC50, lay at 1.83 nM. This molecule gave an EC50 in assay [3] of 1.01 nM. In addition, the “Human THP-1 CD39 inhibition IC50” value in assay [4] came to 0.25 nM.

B2: hu39.2_IGG4.P (antibody, human IgG4 S228P, kappa)
heavy: not shown
light: DIVLTQSPASLAVSPGQRATITCRASEGVKSYMHWYQQKPGQPPKLLIYKASNLASGVPARFSGSGSGTDFTLTINPVEADDTANYYCQQSWNDPTFGQGTKLEIKRTVAAPSVFIFPPSDEQLKSGTASVVCLLNNFYPREAKVQWKVDNALQSGNSQESVTEQDSKDSTYSLSSTLTLSKADYEKHKVYACEVTHQGLSSPVTKSFNRGEC
notes: humanized variant of antibody 39 (VH1 + VL1), IgG4 (S228P)
Turning to B2, in assay [5], the “IC50, CD39 enzymatic inhibition on human monocytes, 400 uM ATP” value turned out to be 0.14 nM and the “Max Inhibition (%), human monocytes, 400 uM ATP” value was 80%. In assay [6], the affinity, expressed as Kd, was 0.0936 nM.

B3: hu39.4_IGG4.P (antibody, human IgG4 S228P, kappa)
heavy: not shown
light: DIVLTQSPASLAVSPGQRATITCRASEGVKSYMHWYQQKPGQPPKLLIYKASNLASGVPARFSGSGSGTDFTLTINPVEADDTANYYCQQSWNDPTFGQGTKLEIKRTVAAPSVFIFPPSDEQLKSGTASVVCLLNNFYPREAKVQWKVDNALQSGNSQESVTEQDSKDSTYSLSSTLTLSKADYEKHKVYACEVTHQGLSSPVTKSFNRGEC
notes: humanized variant of antibody 39 (VH3 + VL1), IgG4 (S228P)
B3: in assay [5], the “IC50, CD39 enzymatic inhibition on human monocytes, 400 uM ATP” value was 0.45 nM and the “Max Inhibition (%), human monocytes, 400 uM ATP” value amounted to 73%. In assay [7], the “IC50, CD39 enzymatic inhibition on human monocytes, 20 uM ATP” value worked out at 0.13 nM and the “Max Inhibition (%), human monocytes, 20 uM ATP” value stood at 71%. This molecule also registered a Kd in assay [6] of 0.185 nM. Besides, in [8], the “IC50, CD39 enzymatic inhibition on THP-1 cells, 20 uM ATP” value was 0.064 nM and the “Max Inhibition (%), THP-1 cells” value is 76%. In assay [9], the EC50 was determined as 10 nM. For the same molecule, in [10], the “IC50, CD39 enzymatic inhibition on SK-MEL-5 cells, 20 uM ATP” value stood at 0.13 nM and the “Max Inhibition (%), SK-MEL-5 cells” value worked out at 60%.

B4: hu31.4_IGG4.P (antibody, human IgG4 S228P, kappa)
heavy: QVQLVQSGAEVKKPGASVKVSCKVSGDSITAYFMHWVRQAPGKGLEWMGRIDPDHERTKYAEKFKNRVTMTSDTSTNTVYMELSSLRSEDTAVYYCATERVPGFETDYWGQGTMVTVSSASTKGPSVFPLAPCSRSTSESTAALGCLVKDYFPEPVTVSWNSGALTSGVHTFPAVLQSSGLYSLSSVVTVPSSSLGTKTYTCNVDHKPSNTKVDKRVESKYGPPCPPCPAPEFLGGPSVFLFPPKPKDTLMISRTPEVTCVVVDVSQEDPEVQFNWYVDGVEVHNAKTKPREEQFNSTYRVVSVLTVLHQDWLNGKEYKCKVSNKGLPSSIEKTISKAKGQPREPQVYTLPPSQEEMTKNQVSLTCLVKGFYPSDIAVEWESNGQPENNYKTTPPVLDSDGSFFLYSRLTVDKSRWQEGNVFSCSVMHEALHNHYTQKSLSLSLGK
light: DIVLTQSPALAVSPGQRATITCRTQQTVDHYGTTYMNWYQQKPGQPPKLLIYLASSLASGVPARFSGSGSGTDFTLTINPVEADDTANYYCQQSRNLWTFGGGTKVEIKRTVAAPSVFIFPPSDEQLKSGTASVVCLLNNFYPREAKVQWKVDNALQSGNSQESVTEQDSKDSTYSLSSTLTLSKADYEKHKVYACEVTHQGLSSPVTKSFNRGEC
notes: humanized variant of antibody 31 (VH1 + VL1), IgG4 (S228P)
B4 displayed an EC50 in assay [11] of 16 nM. For the same molecule, the Kd in assay [1] was determined as 0.176 nM. In addition, in [7], the “IC50, CD39 enzymatic inhibition on human monocytes, 20 uM ATP” value worked out at 0.59 nM and the “Max Inhibition (%), human monocytes, 20 uM ATP” value stood at 74%. In addition, the EC50 in [2] is 1.7 nM. Besides, in assay [3], the midpoint of the response, the EC50, lay at 0.78 nM. For the same molecule, in [8], the “IC50, CD39 enzymatic inhibition on THP-1 cells, 20 uM ATP” value was 0.095 nM and the “Max Inhibition (%), THP-1 cells” value was 73%. This molecule also showed an EC50 in assay [9] of 26 nM. Besides, the “Human THP-1 CD39 inhibition IC50” value in [4] worked out at 0.26 nM. In assay [10], the “IC50, CD39 enzymatic inhibition on SK-MEL-5 cells, 20 uM ATP” value was 1.1 nM and the “Max Inhibition (%), SK-MEL-5 cells” value was 71%.

B5: hu31.6_IGG4.P (antibody, human IgG4 S228P, kappa, V domains shown)
VH: EVQLVQSGAEVKKPGATVKISCKVSGDSITAYFMHWVQQAPGKGLEWMGRIDPDHERTKYAEKFKNRVTITADTSTNTVYMELSSLRSEDTAVYYCATERVPGFETDYWGQGVMVTVSS
VL: DIVLTQSPALAVSPGQRATITCRTQQTVDHYGTTYMNWYQQKPGQPPKLLIYLASSLASGVPARFSGSGSGTDFTLTINPVEADDTANYYCQQSRNLWTFGGGTKVEIKR
notes: humanized variant of antibody 31 (VH2 + VL1), IgG4 (S228P)
Regarding B5, in assay [1], binding was put at a Kd of 0.613 nM, the koff came to 0.000684 s⁻¹ and the kon came to 1.12e+06 M⁻¹ s⁻¹. For the same molecule, the EC50 in assay [2] is 1.69 nM. This molecule also came in with an EC50 in assay [3] of 0.81 nM. For the same molecule, the “Human THP-1 CD39 inhibition IC50” value in [4] was determined as 0.3 nM.
